Test results taken from the domain aggregation screens of Martell et al. (2025).

Experiment: soluble fraction after stress (log2 fold change); higher = more stays soluble; pooled small domains, quantitative proteomics
Settings: stress: 50 degC
How it was run: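 Custom libraries of small protein domains were pooled and measured in a high-throughput format, with quantitative proteomics as the read-out. Each library was stressed at 50°C. The value is the log2 fold change in the amount of each protein that stays soluble after stress, used as a measure of aggregation propensity; higher values mean more of the protein stays soluble.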

First: HMAIDINKIYSEIKKKIPNQDNHIKEILSIIWRDFNNYQNIKSRSILINGEKSSPKKEIFNIIEDNINIPV
Second: HMGVDKLTPREREVLALMAQGASNREIEGKLVLTAGAVSKHVANVFMKLGFSPEDENRRVKAVLAWLRTK
The “soluble fraction (log2)” value of the first is higher: 0.0154 for the first, -1.05 for the second.

First: HMNLGNLAYESKVTKQVLNMIRPLHPEYSSDDITRAVKEILSEEGSRQRRVDEIARGALDVLMGNPR
Second: HMASAAHYEGVKTEGESDNDVITRVLTATGVTAEKDDIFVVKSLIADGKYSYTAYVYDGSVWAAMD
The “soluble fraction (log2)” value of the first is higher: 0.216 for the first, -0.0797 for the second.

Going from “HMQKITPDNWTYIRSLIRQKWSPDQIDQWLKKHPDVGFTVSRETIYQYVKEDRQKDGDLYLSLRRAGKSY” to “HMDSHSAESVRQRIKDMIAAEASKSILSDDTIVENLKSEGIEIARRTVAKYRESLNIPSSIQRRRIARSEA”, the “soluble fraction (log2)” value rises from -1.71 to -0.0963.

Going from “HMTKRKNTEFRQQQIIEAAAKLIFKYGSEHLTVKRIAAQVGISEAAIYRHFTSKKSILSFLLSHIEE” to “HMRQSKMREAILAAVSAQKLEISDLHVWRIGEQRYAAIIGLATTQAESVSALRDSLAQMDKLVHLTIDQ”, the “soluble fraction (log2)” value falls from -0.423 to -1.89.

Compared with “HMTKNEFLQGLKEELEGRVTHSAIQENIRYYDDYISQEVLKGSTEEEVTESLGGPRIIARTIVDAAYD”, “HMVSTGIMVVDGRGSVLQHNEAALRQLGVEVLTFESQVKEKLASEDFSVRETTAMLNGKKVRIIAFSDIR” is lower in “soluble fraction (log2)” value: -0.0458 for the first, -1.62 for the second.

“HMDPSVTGLLTRLGISPQTAQELAGQYEEPYILEKIAIVEAHPEYVKNAAGFVITALQEDWKD” and “HMTAPELGIRQDGNTLVIFWPSSVTGYVLKSADAVDTPPASWTSVTHTTVGDEHRAEITPTGNSRFFRLV” are within 0.2 log units of each other in “soluble fraction (log2)” value: -0.255 for the first, -0.267 for the second.

Going from “HMFDTVKIGKRIAELRKKRDMTQFELADRLGISYQAVSNWERGNSMPDIAKLPELAEIFGVTVDEILG” to “HMGTAEDYLLPRRAEILSIIRDHEFANFDLIRRRFLAVNERTLRYDLKKLSDLGLIKKLGKTRGVYYRAAK”, the “soluble fraction (log2)” value falls from 0.161 to -1.49.

Going from “HMKSYTYNPNYLSDYNAYRLGIPLEALERLQLHRSTGRYVNSLSDFQSVTGISDSLKHSLSSSLRFPN” to “HMASQEESVATYIQDYYRNPKTGESMVSDDMVEEFYKTHPEWEDQADGSKEGMEAVLDNFNEFFEINYG”, the “soluble fraction (log2)” value rises from -0.876 to 0.0827.

Compared with “HMATPIAGTKYTLNNTPVYGTEKGPSIGKRSGIYYTWDATVRNGRIRMTNSPARVGVPWQVSFWVEVNKL”, “HMENVQLRNFAIKATEAGIIKLSSDQRTFMWASNQKKLMTVPFDEHPYSAMAQFFKTDEGLAVFKSIEKKL” is lower in “soluble fraction (log2)” value: -0.533 for the first, -1.12 for the second.

“HMVDPRWETPDENLAEQIKSVMPVMWVYDREAKSFVERPAIDFSFSIFERTTLYIYDKDGNEIGFAR” and “HMIEGETPEQTMERVSKDPEIVQILQDPVMQGILAQARENPAALQDHMKNPEVYKKINMLIAAGVIRT” are within 0.2 log units of each other in “soluble fraction (log2)” value: -0.028 for the first, 0.0669 for the second.

Compared with “HMQDREKNIAEGRDIIEHEFMRLGISLSRYDLDGLASKLNVKAGDDVLAGVGAGDIRVSQIISQLG”, “HMNIMNINQALNVLNLKGTVSKEELAKAYKKMAIKYHPDRNPTGVEMMKVINSAYEFLKGLNLEEIKH” is higher in “soluble fraction (log2)” value: -0.00799 for the first, 0.256 for the second.

“HMDAIAYLGSRLKEIRLKSGLSLREIARQLDVSPSFISQIENGKSQPSVATLYAFAKLLNVPVDVLFQPS” and “HMLSDSDTLRDLYLSEQIWNVGDLIRVKGKNDDTHPSWEIIRRGTNYITAIDENYKSHKVWLHDIDI” are within 0.2 log units of each other in “soluble fraction (log2)” value: -1.05 for the first, -1.17 for the second.

Going from “HMEMLQENIRNLRKAKGWSQEELAIKLNVVRQTVSKWEKGLSVPDSQMLIRIADELDTTVAILLG” to “HMNLDPHVVGHRLRDLRTRRDLTLADVAAETDISVSTLSRLESGSRRATLELLVPLARTYRVTLDELVDA”, the “soluble fraction (log2)” value falls from -0.246 to -0.66.

“HMSTSLIEFTIDRNNSIANKMIMDANIPEDILVVMIKRNGDVFVPNGSTKILPGDILVLSGNKLKY” and “HMGNSRNDQDLQTQIIKILAEGPASSRTLIETLTIEDEAALLKTLKRLLMNKKISLTPSNLYKL” are within 0.2 log units of each other in “soluble fraction (log2)” value: -0.534 for the first, -0.487 for the second.

“HMQPAGEGAILRYLSSGAVKGIGPVMAREIVRRFGTDTFRVMEQEPEKLLKVKGITEQRLQTIMESYQD” and “HMSTMTEQEAFGLWERINDFIARTGNEPNRNSNDAHEVRMAEALNFIRIKVAEQRNSQSNSEAQNN” are within 0.2 log units of each other in “soluble fraction (log2)” value: -0.0857 for the first, -0.0168 for the second.

“HMNSNTIIFSQFLSEVDNGRVTQVQIQGNNIKGTLSNGKDFITYAPNDPNLIEKLTSKGVSISASPID” and “HMAVPTHVEFPVVGLQRSGITSLEQAIATVPGVSKAVVNVSDNRIFVDYDPTRSKVSDLLEVVRGAGFTP” are within 0.2 log units of each other in “soluble fraction (log2)” value: 0.0608 for the first, -0.000584 for the second.

First: HMLMRKAEVGVESLNLRHGPGTQYKVLEILPGGKSLHYLAEPRRGWVRVTTEEGTTGWTFLKFLKPE
Second: HMDIPGITAVKPQAAFYMFPKIDVKKFNIVNDEKFALDLLQDKKILIVQGSGFNWKQPDHFRVV
The “soluble fraction (log2)” value of the first is lower: -1.96 for the first, -0.103 for the second.

Compared with “HMLRDTTLLHIDSIVRDGSTAMANITVRDEGTDLEFPLQLRMERGDMGWQVVRIVNYRAYLEAVQKA”, “HMVEVPNVSNLTLEQAENKLIQQGLQVKLEGQGEKVVAQIPQPGAVVNKKSTVILF” is higher in “soluble fraction (log2)” value: -0.336 for the first, 0.129 for the second.

“HMDNPKGNLQEAVQAKGNEPIEYRVLNVDGPDHAREFKIAVFIGGKRKGTGVGNSKKKAEEIAAEKAFKRM” and “HMEEEVKVPKIKGLTEAEAKAKLKSEGLESGTARSAYSDTVEEGHIISQSIQEGTKVPKGTAVSYEVSKGK” are within 0.2 log units of each other in “soluble fraction (log2)” value: 0.127 for the first, 0.17 for the second.

“HMKRISDEDLLVMRRIDEVHTYHPTWGYRTITRILRRDDHLLINPKKVRRIMRDMGIYTIYPK” and “HMASPKEALWRSLAEEPDTWWDNRERKSQPGANPRSPDFKHKESGEALWIESRDTPTWVLETL” are within 0.2 log units of each other in “soluble fraction (log2)” value: -0.039 for the first, 0.1 for the second.

Compared with “HMFPELSEEAKVIVDALSKENDQQLNVLIANTGMAVGTMQAKLFELEMQGVVKPLAGSVYHLM”, “HMNKFRVGDEVEIVKLDKTIQHFGGEEVLSPVGTKTYITYVDVTGKEIEIDKDIYSYHADDLTLV” is higher in “soluble fraction (log2)” value: -0.0727 for the first, 0.147 for the second.

“HMTGVEAIERYLASGVIPGVGPVLAKRLVERFGARTLEVIEDSPRRLTQVPGIGRQKARQIHQALKAQRE” and “HMTFGENLIRLRRQQGLSQEQLGMRIGVSRQTVSKWELNDTTPEMEKLIALADLFGLSLDELTGRV” are within 0.2 log units of each other in “soluble fraction (log2)” value: -0.25 for the first, -0.115 for the second.

Going from “HMVVVMEKNASSAEIEQVQERLRQAGFKIHLSQGVERTIIGAIGDRSQVDLGFLEALPGVEKVVPIMK” to “HMDLHERISSVLLGTGKSNDELAQILGVNKNTISAYKNKHGDLKGIVLEGIVKHFDINPVWLLTGSGTR”, the “soluble fraction (log2)” value falls from 0.0845 to -0.54.

First: HMSMNSWFVEKERDNTRIDKFLNEQMADISRSYIQKLIKDDLVTVDLRPVKANYKVKEGDRVEVTLPEPV
Second: HMPILRDEVYLSIKEAILTGELAPGERISIGRLLPQIGFSPTPIREALLKLEQEGFVSRLQRGGFIVSR
The “soluble fraction (log2)” value of the first is higher: 0.0182 for the first, -0.991 for the second.

Compared with “HMKALYNLDYEKPLSGSYYTETTARAAVPTDIRKLGLIITYKTDATTNITEQFVGSSISAWTTSGNWKSLG”, “HMIAAPFVVKDIRVDGVQPATGEAIISSLPVKVGQTATDADVSNVVRQLFSLNRFQNVQATREGNTLVIKV” is higher in “soluble fraction (log2)” value: -0.424 for the first, 0.0499 for the second.

“HMVENMDEFIGRVRRLVSDRLDLLKEASDDEIRETISQVVLELSREQFLTLNEKKTVLEGVFNSMR” and “HMSVLPAREQVAAILRQAILLRKFKEGQDLTLKDAAELVGSSITPVREAFQILENEGLIELRPNKGAVVL” are within 0.2 log units of each other in “soluble fraction (log2)” value: -0.399 for the first, -0.284 for the second.

Compared with “HMSLMHEESLKNIRRFINSLPESLRTAFTLREQDGLSYEEIGVITETPIGTVRSRIFRAREAILEHIKKEL”, “HMEMPGGVMRTLSTIAYNQPVLQSKLVKVRGPRAYEDVHILRDMGLVSARSVGQTVELSTTPKFAEQF” is higher in “soluble fraction (log2)” value: -2.24 for the first, -0.265 for the second.

Compared with “HMAQSTALVNLAQAEINKRGLTQTEVQARLSEEGINVNSISPAEYPKYQKQILSILDQMQKEKQLSKEV”, “HMNNPISMQKLRQVIRLYGQGKGTKSINSMLGVSRNTIKKYLQVYHSSGINYESFLAMSDKELSAVFLV” is lower in “soluble fraction (log2)” value: 0.412 for the first, -0.398 for the second.

“HMQATDEEIENFTSSAITAYKLTKEEGYIISMRDMKPIMEIVKTEYPMANGKVVSKVMNNYING” and “HMKGERHNKILELIQQHAIDRQEDLLRYLKEAGFQVTQATVSRDIRELHLVKVAAGGGQYRYVSAAAAS” are within 0.2 log units of each other in “soluble fraction (log2)” value: -0.0668 for the first, -0.0903 for the second.

First: HMSKISKENEQQVIQIVQTLLLNVQDKSLITTQILNEKINLAVSLDTKYKENLDRDYIIEELIRRYSVW
Second: HMKFKDYYAALGIDRNADLEQIKKAYRKLARQYHPDVSKAPDAEARFKDAAEAYATLKNPEKRAAYDELGS
The “soluble fraction (log2)” value of the first is lower: -1.12 for the first, 0.062 for the second.

First: HMNDGTIRVGTNVTIKPSAKRWATGQNIYYGVKGKTYKVIQMNGNRLLLDKVISWINKGDVYVPGS
Second: HMSPSSPNQILGQYPKTKNDIILSSGRYGPYLKYNKKNYSLGNNISVEKLSLEEAVKIIDLKDKK
The “soluble fraction (log2)” value of the first is lower: -0.501 for the first, 0.0457 for the second.

Going from “HMEKIIFEISEEGKRLDLYIAERTELTRTRIQQLIKDGNINVNNKKSKPSYKVEKNDFIEMIIPDE” to “HMADYSMDDNAWNAKKADIDEWFEANPDFSANKAITDGLFSIGDSQVEMRKRYWASIAGVFAGLPNSPIG”, the “soluble fraction (log2)” value rises from -0.56 to -0.152.

Going from “HMVKFGERVKQLRLSAGMTQEQLAERIWVTKAAISNYELSERNPSPETIIKIAGVFGVTTDYLLGLED” to “HMTLSVRQRMSQIINKIDVSNFTDFTKLFDINEGRLGVAVTFLAILELLKDTMIDVIQNEEFAPLHIKVSS”, the “soluble fraction (log2)” value rises from -0.5 to -0.177.

Compared with “HMDWVAYGAELRRRRLLAGWSVAELSRRTNLSTSIIYQVEQARTRLRPSQLTLAKLAAALGMP”, “HMSEIKDRLREARRNKGLSQAGLSKLLGVSQASIAAIESGRNKRPTNLVSIAKALDVSPYWLETGK” is higher in “soluble fraction (log2)” value: -3.15 for the first, -0.124 for the second.

Going from “HMEDSSSILNRMRKLIALLNRASEAYYKENKEIISNFEYDRLYDELLGLESRSNTVLSGSPTYKV” to “HMKQYVEPASETEKMVVELWEKVLLTEKIGMHDDFFELGGHSLKAMRLISLYHQEFNVRLSLKSLFEKLK”, the “soluble fraction (log2)” value rises from -1.63 to -0.121.

Going from “HMRDTAKTLLAMEVVGENNKKNLQAFGIQKGDQNYQTAVVVRLMQKALMEGDTSAIRLIGELTGD” to “HMLPVLEIGTMIRIIRQPHFGTIARVVALPEELTKVESETLVRILDAEFDDGTRVRIPRANVEVIE”, the “soluble fraction (log2)” value falls from -0.197 to -1.25.

Going from “HMDARSTHIAAIHVLKSKLQLQDSDYRALLLTLTGQTSSKDLSEHQRRAVRNHMQQLAERMGVVQ” to “HMGNIADARRDASYVFLIGEWAKSSNLTEKKLAGLIQSNHLDIKYGITVTDVIADIRKYKNDPTYNPF”, the “soluble fraction (log2)” value rises from -0.533 to -0.305.

With “HMRSFGTVAQARGRWKAFYVGPDKRRHTPGVTFSNPIRAQGWLAQELTLIELGQWTPPAQRREKAEVAS” the “soluble fraction (log2)” value was -2.4.
